Laboratory results from the nanobody polyreactivity screen of Harvey et al. (2022).

Test: yeast display, Sf9 membrane polyspecificity reagent, FACS + sequencing; frameworks hold sequencing errors
How it was run: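 Genes from sorted yeast were amplified by colony PCR, read by MiSeq 2 × 250 sequencing and filtered on CDR length. These cells carried a synthetic nanobody library in Saccharomyces cerevisiae BJ5465 and were sorted by FACS into low and high (top ~1%) gates on anti-HA and streptavidin fluorescence. Polyreactivity is labelled according to the gate of origin.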

Sequence | polyreactivity (PSR sort gate)
QVQLVESGGGLVQAGRSLRLTCAASGRIFTPYAMGWYRQAPGTERELVATITLSGGSTYYADSVKGRFTISRDYAKNTVYLQMNSLKPEDTAVYYCNKDTHLHVVDYRTGYDCWGQGTQVTVSS | low polyreactivity
QVQLVESGGGLVQAGRSLRLTCAASGRTFRAYTMGWYRQAPGKERDLVAAITSSGGGTYYADSVKGRFTISRDNAKNTVYLQMNSLKPEDTAVYYCNDRKQSYPDKYRRDYWGQGTQVTVSS | low polyreactivity
QVQLVESGGGLVQAGSSLRLSCAASGRTLIYNAMGWYRQAPGKERELVASINRRGDSTYYADSVKGRFTISRDNAKNTVYLQMNSLKPEDTAVYYCAKVLYGGYPENRYFVGWGRDYWGQGTQVTVSS | high polyreactivity
QVQLVESGGGLVQAGSSLRLSSAASGSIIGVNAKGRYRQAAGKERELVAAISSTGGSTYYADSVKGRYTISRDNAKNTVFLKMNSLKPDDTAVYYCNTDYSKSIGDGYSGFDYWGQGTQLTVSS | low polyreactivity
QVQLVESGGGLVQAGSTLRLSCAASGRIFDLYTMGWYRQAPGKERELVAAIRWSDGSTYYADSVKGRFTISRDYAKNTVYLQMNSLKPEDTAVYYCAADTRTSYYNDDYDYWGQGTQVTVSS | low polyreactivity
QVQLVESGGGLVQAGVRLRLSCAASGIIFRTYAMGWYRRAPGKERELVADITWSDGSTYYADSVKGRFTISRDNAKNTVYLQMNSLKPEDTAVYYCNADVLSDDSWWSYDYWGQGTQVTVSS | high polyreactivity
QVQLVESGGGLVQAGVRLRLSCADSGSTFYLNAIGWYRQAPGKERELVAAITRVGRTYYADSVKGRFTISRDNAKNTVYLQMNSLKPEDTAVYYCNALGHYKLWGLGTQVTVSS | high polyreactivity
QVQLVESGGGLVQAGVSHRLSCAASGRTFPGNAMGWYRQAPGKEREFVAAISYSGGRTYYADSVKGRFTISRDNAKNTVYLLMNSLKPEDTAVYYCAKRIVQPSVAAYYYWGLGTQVTVSS | high polyreactivity
QVQLVESGGGLVQAGVSLRISCAASGFIFYYYAMGWYRQAPGKERELVAAISWSGGSTYYADSVKGRFTISRDNAKNTVYLQLNSLKPEDTSVYYCNARFRYARYSQRYDYWGQGTQVTVSS | high polyreactivity
QVQLVESGGGLVQAGVSLRISCAASGSTFRGYVMGWYRPAPGKERELVAAISRSGTSTYYADSVKGRFTISRDNAKNTVYLQINSLKPEDTAVYYCAAQLYGHGEDYWGQGTQVTVSS | high polyreactivity
QVQLVESGGGLVQAGVSLRLICAASGLTFQYNAMGWYRQAPGKEREMVASINSGGSTDYADSVKGRFTISRDNAKNTVYLQMNSLKPEDTAVYYCATSGYWYSASYGYEYWGQGTQVTVSS | low polyreactivity
QVQLVESGGGLVQAGVSLRLSCAASGFIFYRYAMGWYRQAPRKERELVAAISWGGGSTTYYADSVKGRFTISRYNAKNTVYLQMNSLKPEDTAVYYCAKLRYPYLFWDDSEYWGQGTQVTVSS | low polyreactivity
QVQLVESGGGLVQAGVSLRLSCAASGFSFAKNAMAWYRQAPGKERELVADITYSGGSTYADSVKGRFTISLDNAKNTVYFQMNSLKPEDTAVYYCAADSRRRSCYDYWVQGTQVTVSS | low polyreactivity
QVQLVESGGGLVQAGVSLRLSCAASGGTFSRNAMGWYRQAPGKERELVAAINSSGVSTSYADSVKGRFTISRDNAKNTVYLQMNSLKPEDTAVYYCAAETSSAEVDYWGQGTQVTVSS | low polyreactivity
QVQLVESGGGLVQAGVSLRLSCAASGIFRRYAMGWYIQAPGKERELVAAISSNGGSTYYADSVKGRFTISRDNAKNTVYLQMNSLKPEDTAVYYCNADVYVWNYYYWGQGTQVTVSS | high polyreactivity
QVQLVESGGGLVQAGVSLRLSCAASGLIFVFYAMGWYRQAPGKERELVAAISRSGTSTYADSVKGRFTISRDNAKNTVYLQMNSLKPADTAVYYCNAYRYYSPYGYWGQGTQVTVSS | low polyreactivity
QVQLVESGGGLVQAGVSLRLSCAASGRIFNGNAMGWYRQAPGIEWELVATITRGGGSTYYADSVKGRFTISRDNAKKTVYLQMNSLKPEDTAVYSCNVPPPTQVRYRSDHWGQGTQVTVSS | low polyreactivity
QVQLVESGGGLVQAGVSLRLSCAASGRTFALNVMGWYRQAPGKERELVAAISRSGGSTYYAESVKGRFTISRDNAKNTVYLQMNSLKPEDTAVYYCAAATHYQSYNRRDYWGQGTQVTVSS | high polyreactivity
QVQLVESGGGLVQAGVSLRLSCAASGRTFEYNAMGWYRQAPGKERELVATIRYSGTSTYADSVKGRFTISRDNAKNTVYLQMNSLKPEDSAVYYFAKQVRYYGYKYNYWGLGTQVTVSS | high polyreactivity
QVQLVESGGGLVQAGVSLRLSCAASGRTFFLYAMGWYRQAPGKERELVARISTSGGGTYYADSVKGRFTISRDNAKYTVYLQMNSLKPEDTAVYYCAARTFRGQRRAGGYDYWGQGTQVTVSS | high polyreactivity

Sequence | polyreactivity (PSR sort gate)
QVQLVESGGGLVQAGVSLRLSCAASGRTFRHNVMGRYRQAPGKERELVAAISYSGGSTHYADSVKGRFTISRDNAKNTVYLQMNSQKPEDTAVYYCNRYSYDSHFLYPFRGHDYWGQGTQVTVSS | low polyreactivity
QVQLVESGGGLVQAGVSLRLSCAASGRTFRRYVMGWNRQAPGKERELVASITRGTGTDYADSVKGRFTISRDNRMNTVYLQMNSLKPEDTAVYYGNVKFGQPIYGEFDYWGQGTQVTVSS | low polyreactivity
QVQLVESGGGLVQAGVSLRLSCAASGRTFYGNAMGWYRQAPGKERELVAAISRSGGRTYYADSVKGRFTISRDNAKNTVYLQMNSLKPEDTAVYYCAKDYYYPSHTYGYWGQGTQVTVSS | high polyreactivity
QVQLVESGGGLVQAGVSLRLSCAASGSIFGFNAMGWYRQAPGKEWELVAAINNGGSTNYADSVKGRFTISRDNAKNTVYLQMNSLKPEDTAVYYFAAERWFYRSKFDYWGQGTQVTVSS | high polyreactivity
QVQLVESGGGLVQAGVSLRLSCAASGSTFRKYTMGWSRQAPGKERELVAAITYRGDRTYYADSVKGRFTISRDNAKNTVFIQMNSLIPEDTAVYYCASTSYYGAVWYIFYYWGQGTQVTVSS | high polyreactivity
QVQLVESGGGLVQAGVSLRLSCAASGSTFRRYAMGWYRQAPGKAWEISTSDGSTYYADSVKGRFTISRDNAKNTVYLQMNSLKPEDTAVYYCAADGYRQLIEDITDDYWGQGTQVTVSS | low polyreactivity
QVQLVESGGGLVQAGVSLRLSCASSGIIFPDYAMGWYRQAPGKERELVAAITRSGGRTFYADSVKGRFTISRDTAKNSVYLQMKSLKPEDTAVYYCAVSYSYLYYYWGQGTQVTVSS | high polyreactivity
QVQLVESGGGLVQAGVSLRLSCPAGGSTFYKYVMGWYRQAPGKEREVVAAISVNGGDTYYADSVKGRFTISRDNAKNTVSVQMNSLNPEDTAVYYCAAERGVDLSARYGDNDNWGQGTQVTVTS | low polyreactivity
QVQLVESGGGLVQAGVSLRLSCSASGLTFRPNAIGWYRQAPGKERELVAAITWSGGRTYYADSVKGRFTISRDNATNTVYFQMNSLKPEDTAVYYCAAVPLRNRWPNSWPALDYWGQVTQVTVSS | high polyreactivity
QVQLVESGGGLVQALGSLRLSCAASGSIFQRNALGWYRLAPGKERELVAAISRSGGSTYYADSVKGRFTISRDNAKNTVYCQMNSLQPEDTAVYYCAAVHFFWGYDYWGQGTQVTVSS | high polyreactivity
QVQLVESGGGLVQARCSLRLSCDASGSIFPHYAMGWYRQAPGKEREFVATISGSTGRTYYADSVKGRFTISRDYAKNTVYLQMNSLKTEDTAVYYCATSVGYYLPPIKYDYWGQGTQVTVSS | low polyreactivity
QVQLVESGGGLVQARGRLRLSFAASGSIFSTNAMGWYRQATGKERELVAAISSSDGITYYADSVKGRFTISRDNAMNTVYLQMNSLKPEDTAVYYCAAEYAYGIEESSAYNIYFYWGQGTQVTVSS | high polyreactivity
QVQLVESGGGLVQARGSHRLSCAASGRTFVTNAMGWYRQAPGKERELVAAIRWSSDSTYYADSVKGRFTISRVIAKNTVYLQMNSLKPEYTAVYYCAARIPKQQGYGYWGQGTQVTVSS | high polyreactivity
QVQLVESGGGLVQARGSLRLICAASGRIFPDYGMGWYRQAPGKESEFDAVIDWIGVSTYYADSVKGRFTISRDNAKNTVYLQINSLKPEDTAVYYCNAEYAFPSPKSSLDYWGQGTQVTVSS | low polyreactivity
QVQLVESGGGLVQARGSLRLSCAACGSTFYWYPLGWSRQAPGTERELVATLTSVGRTNYADSVKGRFTISRDNAKNSVYLQMNRLNPEDTAVYYCAASKARWPRGGSRGGMGYWGQGTQVTVSS | high polyreactivity
QVQLVESGGGLVQARGSLRLSCAASAFIIPVYTIGWYRQAPGKERELVAAITQIGGSTHYADSVKGRFTISRANAKNTVYLQMNSLKPEDTAVYYCAVDYDSYWYGTYVNEYDYWGLGTQVTVSS | low polyreactivity
QVQLVESGGGLVQARGSLRLSCAASGFTFERYTMGWYRQAPGKERELVATISRRSGRTSYADSVKGRFTISRDNEMNSVYLQMNSLKPEDTAVYYCAVDDAYPDRYDYWGQGPQVTVSS | high polyreactivity
QVQLVESGGGLVQARGSLRLSCAASGIIFLVNDMGWYRQAPGKVRELVAAITYSGDGTFYADSVKGRFTISRDNAKNTVYLQMNSLKPEDTAVYYCAADLPESPESYYHTDDYWGQGTQGTVSS | low polyreactivity
QVQLVESGGGLVQARGSLRLSCAASGITFNRYVMGWYRQAPGKERELVAAISRTGGSTYYADSVKGRFTISRDNAKNTDFLQMNSLKPEDTAVYYCAAATSPGIYDYWGQGTQVTVSS | high polyreactivity
QVQLVESGGGLVQARGSLRLSCAASGITFSRNVMGWYRQAPGKERELVAAISRSGGRTYYADSVKGRFTISRDNAKNTVYLQMNSLKPEVTAVYYCNRDIGGTTVLDDYCGQGTQVTVSS | low polyreactivity
